Values belong to the binder of their own block, whether it stands above or below them.
Assays:
[1] = target: His-tagged IgD (SpyTagged HAPPID1: human anti-Phl p 7 IgD 102.1F10 with SpyTag003 and His6-tag on the heavy chain) (human) (UniProt P01880); experiment: SPR; His-tagged IgD (100 nM) captured on an anti-His chip (CM5); two-fold dilution series of TEV-cleaved Nbs, 200 nM to 1.6 nM, flowed over; Biacore T200, 25 °C, 10 mM HEPES pH 7.4, 150 mM NaCl, 0.05% P20; koff from mono- or biphasic decay, kon from kobs against concentration, KD = koff/kon
[2] = target: IgD on Namalwa B cells (membrane-bound IgD) (human (endogenous in Namalwa)) (UniProt P01880); experiment: flow cytometry on cells; Namalwa cells incubated with 1 µM AF488-labeled Nb:Catcher fusion in PBS pH 7.3, 1% BSA, 0.1% NaN3, 1 h at 4 °C (1 µM, 500 nM and 250 nM for titration); median fluorescence intensity
IgD on Namalwa B cells (membrane-bound IgD) (human (endogenous in Namalwa)), sequence (P01880 whole entry, looked up, the tested form may be a part): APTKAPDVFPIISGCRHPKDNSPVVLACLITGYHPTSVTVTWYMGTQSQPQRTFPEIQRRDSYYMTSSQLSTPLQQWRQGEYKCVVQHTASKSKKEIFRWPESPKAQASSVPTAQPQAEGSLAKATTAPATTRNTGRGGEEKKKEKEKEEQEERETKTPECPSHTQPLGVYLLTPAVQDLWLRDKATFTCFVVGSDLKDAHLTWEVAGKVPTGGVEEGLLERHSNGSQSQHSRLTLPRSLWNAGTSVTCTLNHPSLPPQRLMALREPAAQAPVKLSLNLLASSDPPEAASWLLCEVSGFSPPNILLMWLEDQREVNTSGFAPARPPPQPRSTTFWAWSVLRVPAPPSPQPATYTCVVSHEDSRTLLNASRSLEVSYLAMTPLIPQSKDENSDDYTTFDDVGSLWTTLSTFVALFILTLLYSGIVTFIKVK

[3] = target: IgD-Fc (Fc region of human IgD, SpyTagged) (human); experiment: SEC; complexes of Nb and IgD-Fc with IgD-Fc at 2 µM, incubated overnight at 4 °C; Superdex 200 Increase 10/300 GL in HBS-az at 10 °C
[4] = target: T1, Phl p 7 (antigen of HAPPID1) on an SA chip (Phleum pratense (common timothy), UniProt O82040); experiment: SPR; IgD (HAPPID1) captured by its antigen Phl p 7 on an SA chip; 25 nM aδNb408 or aδNb408-Nb pairs flowed over; 25 °C, running buffer with 5 mM CaCl2; settings: both partners purified
T1 construct: Held on a streptavidin chip; also called SA-Phl p 7 chip
T1 sequence (O82040 whole entry): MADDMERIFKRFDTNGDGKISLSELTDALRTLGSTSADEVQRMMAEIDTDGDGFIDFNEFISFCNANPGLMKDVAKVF

B1: anti-IgD Nb 107 (aδNb107), TEV-cleaved (VHH)
VHH: QVQLQESGGGLVQAGASLRLSCTASERTFSPYAMGWFRQAPGREREVIASIFWTGGNTGYADSVKGRFTISRDTAKNTVYLQMSNLKPEDTAVYYCGARTSASAPIYGLWGQGTQVTVSS
- KD1 [1]: 3.2 nM
- KD2 [1]: 22 nM
- koff1 [1]: 0.00066 s⁻¹
- koff2 [1]: 0.0046 s⁻¹
- kon [1]: 210000 M⁻¹ s⁻¹

B2: AF488-labeled monovalent aδNb107 (SpyTagged aδNb107 reacted with AF488-labeled SpyCatcher003) (VHH)
VHH: QVQLQESGGGLVQAGASLRLSCTASERTFSPYAMGWFRQAPGREREVIASIFWTGGNTGYADSVKGRFTISRDTAKNTVYLQMSNLKPEDTAVYYCGARTSASAPIYGLWGQGTQVTVSS
- MFI [2]: 662

B3: His-tagged anti-IgD Nb 107 (aδNb107) (VHH)
VHH: QVQLQESGGGLVQAGASLRLSCTASERTFSPYAMGWFRQAPGREREVIASIFWTGGNTGYADSVKGRFTISRDTAKNTVYLQMSNLKPEDTAVYYCGARTSASAPIYGLWGQGTQVTVSS
- stoichiometry N [3]: 2 Nb:IgD

B5: His-tagged anti-IgD Nb 408 (aδNb408) (VHH)
VHH: QVQLQESGGGLVQAGDSLRLSCVASGRSISNDAMAWFRQAPGKEREFVAAITWRYSNTHYSDSVKDRFTISRDNAKNTVYLQMNSLKPEDTADYYCAADRRGTGASSYSRDYDYWGQGTQVTVSS
- stoichiometry N [3]: 2 Nb:IgD

B6: AF488-labeled monovalent aδNb408 (SpyTagged aδNb408 reacted with AF488-labeled SpyCatcher003) (VHH)
VHH: QVQLQESGGGLVQAGDSLRLSCVASGRSISNDAMAWFRQAPGKEREFVAAITWRYSNTHYSDSVKDRFTISRDNAKNTVYLQMNSLKPEDTADYYCAADRRGTGASSYSRDYDYWGQGTQVTVSS
- MFI [2]: 1340

B7: His-tagged anti-IgD Nb 367 (aδNb367) (VHH)
VHH: QVQLQESGGGLVQPGGSLRLACAASGFSLSTYTMSWVRQSPGKGLEWVSTITSDGGWTSYRDSVKGRFTISRDNAKNTLYLQMNSLNPEDTAVYYCRRGVGVVRGERPGGQGTQVTVSS
- stoichiometry N [3]: 2 Nb:IgD

B9: AF488-labeled monovalent aδNb367 (SpyTagged aδNb367 reacted with AF488-labeled SpyCatcher003) (VHH)
VHH: QVQLQESGGGLVQPGGSLRLACAASGFSLSTYTMSWVRQSPGKGLEWVSTITSDGGWTSYRDSVKGRFTISRDNAKNTLYLQMNSLNPEDTAVYYCRRGVGVVRGERPGGQGTQVTVSS
- MFI [2]: 1450

B12: AF488-labeled monovalent aδNb571 (SpyTagged aδNb571 reacted with AF488-labeled SpyCatcher003) (VHH)
VHH: QVQLQESGGGLVQPGGSLRLSCAASGTPFSASVMAWYRQAPGKERVWVATITSDSMTYYADSVNGRFTISRDNAKSTVYLQMNSLKPEDTAAYICRHAASASWGQGTQVTVSS
- MFI [2]: 921

B13: His-tagged anti-IgD Nb 571 (aδNb571) (VHH)
VHH: QVQLQESGGGLVQPGGSLRLSCAASGTPFSASVMAWYRQAPGKERVWVATITSDSMTYYADSVNGRFTISRDNAKSTVYLQMNSLKPEDTAAYICRHAASASWGQGTQVTVSS
- stoichiometry N [3]: 1 Nb:IgD

Other lines, results leading:

- KD1 [1]: 0.89 nM
- KD2 [1]: 5.2 nM
- koff1 [1]: 0.00074 s⁻¹
- koff2 [1]: 0.0043 s⁻¹
- kon [1]: 820000 M⁻¹ s⁻¹
B4: anti-IgD Nb 408 (aδNb408), TEV-cleaved (VHH)
VHH: QVQLQESGGGLVQAGDSLRLSCVASGRSISNDAMAWFRQAPGKEREFVAAITWRYSNTHYSDSVKDRFTISRDNAKNTVYLQMNSLKPEDTADYYCAADRRGTGASSYSRDYDYWGQGTQVTVSS

- Kd [1]: 2.4 nM
- koff [1]: 0.00047 s⁻¹
- kon [1]: 200000 M⁻¹ s⁻¹
B8: anti-IgD Nb 367 (aδNb367), TEV-cleaved (VHH)
VHH: QVQLQESGGGLVQPGGSLRLACAASGFSLSTYTMSWVRQSPGKGLEWVSTITSDGGWTSYRDSVKGRFTISRDNAKNTLYLQMNSLNPEDTAVYYCRRGVGVVRGERPGGQGTQVTVSS

- binding result [4]: binds
B10: human anti-Phl p 7 IgD 102.1F10 (HAPPID1) (antibody, V domains shown)
VH: QVQLVQSGAEVRNPGASVKVSCKASGYTFTSYAIHWVRQAPGHRLEWVGRINTDNGNTKYSQKFHGRVALSRDTSASTTYMDLSSLNSEDTAVYYCARAFYYSSGVMFDSWGQGALVTVSS
VL: QSALTQPPSVSGAPGQRVSISCTGGSSNFGAGYDVHWYQQLPATAPKLLIYGNNNRPSGVPDRFSGSKSGTSASLAITGLQAEDEGDYFCQSFDTSLSGWIFGGGTKLTVL
notes: heavy-chain variable domain of the human anti-Phl p 7 antibody 102.1F10; pVITRO1-HAPPID1 at Addgene; human immunoglobulin heavy constant delta, secreted form; UniProt P01880-1 is printed for the IgD-Fc used in this study; light chain of 102.1F10; also called full-length IgD; source: stably transfected FreeStyle 293-F cells; copies: 2 + 2

- Kd [1]: 0.66 nM
- koff [1]: 0.0012 s⁻¹
- kon [1]: 1.8e+06 M⁻¹ s⁻¹
B11: anti-IgD Nb 571 (aδNb571), TEV-cleaved (VHH)
VHH: QVQLQESGGGLVQPGGSLRLSCAASGTPFSASVMAWYRQAPGKERVWVATITSDSMTYYADSVNGRFTISRDNAKSTVYLQMNSLKPEDTAAYICRHAASASWGQGTQVTVSS
